Experimental data: publication PMC10026030, “A short-chain acyl-CoA synthetase that supports branched-chain fatty acid synthesis in Staphylococcus aureus” (The Journal of Biological Chemistry, 2023)
Where two headings read alike, the source gives them in different places.

Assays:
[1] = target: T1, MbcS (methylbutyryl-CoA synthetase; SAUSA300_2542) (Staphylococcus aureus, UniProt A0A0H2XHR6); test: LC-MS/MS of acyl-CoA product, Michaelis-Menten fit; settings: 2.5 mM ATP, 2.5 mM Mg2+, 200 μM CoA, Tris pH 7.5, 37 °C
T1 sequence (A0A0H2XHR6 1-532): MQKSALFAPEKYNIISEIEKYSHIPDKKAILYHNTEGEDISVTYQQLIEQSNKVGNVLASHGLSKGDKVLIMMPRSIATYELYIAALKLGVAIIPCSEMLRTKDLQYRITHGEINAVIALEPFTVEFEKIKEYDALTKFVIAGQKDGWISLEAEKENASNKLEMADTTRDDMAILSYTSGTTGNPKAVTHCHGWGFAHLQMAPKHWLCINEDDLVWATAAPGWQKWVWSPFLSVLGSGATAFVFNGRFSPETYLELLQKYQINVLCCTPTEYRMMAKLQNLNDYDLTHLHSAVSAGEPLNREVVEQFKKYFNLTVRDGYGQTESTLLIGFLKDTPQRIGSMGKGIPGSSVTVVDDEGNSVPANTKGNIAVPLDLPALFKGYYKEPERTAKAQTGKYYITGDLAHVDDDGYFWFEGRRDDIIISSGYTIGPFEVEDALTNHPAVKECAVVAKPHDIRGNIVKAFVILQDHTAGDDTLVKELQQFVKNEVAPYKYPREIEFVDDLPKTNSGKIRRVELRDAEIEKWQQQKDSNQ

[2] = substrate: Nc1ncnc2c1ncn2[C@@H]1O[C@H](COP(=O)(O)OP(=O)(O)OP(=O)(O)O)[C@@H](O)[C@H]1O; test: purified protein; settings: 2.5 mM Mg2+, 200 μM CoA, 50 μM aC5, Tris pH 7.5, 37 °C
[3] = substrate: CCCC(=O)O; test: purified protein; settings: 2.5 mM ATP, 2.5 mM Mg2+, 200 μM CoA, Tris pH 7.5, 37 °C
[4] = substrate: CC(C)(COP(=O)(O)OP(=O)(O)OC[C@H]1O[C@@H](n2cnc3c(N)ncnc32)[C@H](O)[C@@H]1OP(=O)(O)O)[C@@H](O)C(=O)NCCC(=O)NCCS; test: purified protein; settings: 2.5 mM ATP, 2.5 mM Mg2+, 50 μM aC5, Tris pH 7.5, 37 °C

CC(C)C(=O)O [iC4, isobutyrate]
Km ([1]; read-out: apparent KM): < 10 µM

CC(C)CC(=O)O [iC5, isovalerate]
Km [1]: > 500 µM

B1: MbcS (methylbutyryl-CoA synthetase; SAUSA300_2542) (Staphylococcus aureus subsp. aureus USA300) (protein)
chain: MQKSALFAPEKYNIISEIEKYSHIPDKKAILYHNTEGEDISVTYQQLIEQSNKVGNVLASHGLSKGDKVLIMMPRSIATYELYIAALKLGVAIIPCSEMLRTKDLQYRITHGEINAVIALEPFTVEFEKIKEYDALTKFVIAGQKDGWISLEAEKENASNKLEMADTTRDDMAILSYTSGTTGNPKAVTHCHGWGFAHLQMAPKHWLCINEDDLVWATAAPGWQKWVWSPFLSVLGSGATAFVFNGRFSPETYLELLQKYQINVLCCTPTEYRMMAKLQNLNDYDLTHLHSAVSAGEPLNREVVEQFKKYFNLTVRDGYGQTESTLLIGFLKDTPQRIGSMGKGIPGSSVTVVDDEGNSVPANTKGNIAVPLDLPALFKGYYKEPERTAKAQTGKYYITGDLAHVDDDGYFWFEGRRDDIIISSGYTIGPFEVEDALTNHPAVKECAVVAKPHDIRGNIVKAFVILQDHTAGDDTLVKELQQFVKNEVAPYKYPREIEFVDDLPKTNSGKIRRVELRDAEIEKWQQQKDSNQ
Km [2]: 3.2 ± 0.2 µM | Km [3]: 144 µM | Km [4]: 49.3 ± 6.9 µM
